Test results published in patent US9617572B2, “Methods of producing 7-carbon chemicals via aromatic compounds” (INVISTA North America S.á r.l., priority 2012, dated 2017).

What was measured:
Format in all cases: biochemical
[1] = ω-Transaminase activity assay, reverse direction (7-aminoheptanoate to pimelate semialdehyde); settings: cell free extract, 10 mM 7-aminoheptanoate, 10 mM pyruvate, pH 7.5, 25° C., 4 h, against empty vector control
Method: (§1) A sequence encoding an N-terminal His-tag was added to the genes from Chromobacterium violaceum, Pseudomonas syringae, Rhodobacter sphaeroides, and Vibrio Fluvialis encoding the ω-transaminases of SEQ ID NOs: 8, 10, 11 and 13, respectively (see FIGS. 7F and 7G) such that N-terminal HIS tagged ω-transaminases could be produced. Each of the resulting modified genes was cloned into a pET21a expression vector under control of the T7 promoter and each expression vector was transformed into a BL21[DE3] E. coli host. The resulting recombinant E. coli strains were cultivated at 37° C. in a 250 mL shake flask culture containing 50 mL LB media and antibiotic selection pressure, with shaking at 230 rpm. Each culture was induced overnight at 16° C. using 1 mM IPTG.
(§2) The pellet from each induced shake flask culture was harvested via centrifugation. Each pellet was resuspended and lysed via sonication. The cell debris was separated from the supernatant via centrifugation and the cell free extract was used immediately in enzyme activity assays.
Enzyme activity assays in the reverse direction (i.e., 7-aminoheptanoate to pimelate semialdehyde) were performed in a buffer composed of a final concentration of 50 mM HEPES buffer (pH =7.5), 10 mM 7-aminoheptanoate, 10 mM pyruvate and 100 μM pyridoxyl 5′ phosphate. Each enzyme activity assay reaction was initiated by adding cell free extract of the ω-transaminase gene product or the empty vector control to the assay buffer containing the 7-aminoheptanoate and incubated at 25° C. for 4 h, with shaking at 250 rpm. The formation of L-alanine from pyruvate was quantified via RP-HPLC.

[2] = ω-Transaminase activity assay, forward direction (pimelate semialdehyde to 7-aminoheptanoate); settings: for acceptance of pimelate semialdehyde as substrate (formation of pyruvate from L-alanine, RP-HPLC): cell free extract, 10 mM pimelate semialdehyde, 10 mM L-alanine, pH 7.5, 25° C., 4 h, against empty vector control; for reversibility of ω-transaminase activity: accepts pimelate semialdehyde and synthesizes 7-aminoheptanoate: conclusion from reverse and forward direction assays
Method: as §1, §2
Enzyme activity in the forward direction (i.e., pimelate semialdehyde to 7-aminoheptanoate) was confirmed for the transaminases of SEQ ID NO 10, SEQ ID NO 11 and SEQ ID NO 13. Enzyme activity assays were performed in a buffer composed of a final concentration of 50 mM HEPES buffer (pH=7.5), 10 mM pimelate semialdehyde, 10 mM L-alanine and 100 μM pyridoxyl 5′ phosphate. Each enzyme activity assay reaction was initiated by adding a cell free extract of the ω-transaminase gene product or the empty vector control to the assay buffer containing the pimelate semialdehyde and incubated at 25° C. for 4 h, with shaking at 250 rpm. The formation of pyruvate was quantified via RP-HPLC.

[3] = ω-Transaminase activity assay (7-aminoheptanol to 7-oxoheptanol); settings: for acceptance of 7-aminoheptanol as substrate (formation of L-alanine, RP-HPLC): cell free extract, 10 mM 7-aminoheptanol, 10 mM pyruvate, pH 7.5, 25° C., 4 h, against empty vector control; for acceptance of 7-oxoheptanol as substrate forming 7-aminoheptanol: concluded from reversibility of the ω-transaminase activity (Example 2)
Method: A nucleotide sequence encoding an N-terminal His-tag was added to the Chromobacterium violaceum, Pseudomonas syringae and Rhodobacter sphaeroides genes encoding the ω-transaminases of SEQ ID NOs: 8, 10 and 11, respectively (see FIGS. 7F and 7G) such that N-terminal HIS tagged ω-transaminases could be produced. The modified genes were cloned into a pET21a expression vector under the T7 promoter. Each expression vector was transformed into a BL21[DE3] E. coli host. Each resulting recombinant E. coli strain were cultivated at 37° C. in a 250 mL shake flask culture containing 50 mL LB media and antibiotic selection pressure, with shaking at 230 rpm. Each culture was induced overnight at 16° C. using 1 mM IPTG.
as §2
Enzyme activity assays in the reverse direction (i.e., 7-aminoheptanol to 7-oxoheptanol) were performed in a buffer composed of a final concentration of 50 mM HEPES buffer (pH=7.5), 10 mM 7-aminoheptanol, 10 mM pyruvate, and 100 μM pyridoxyl 5′ phosphate. Each enzyme activity assay reaction was initiated by adding cell free extract of the ω-transaminase gene product or the empty vector control to the assay buffer containing the 7-aminoheptanol and then incubated at 25° C. for 4 h, with shaking at 250 rpm. The formation of L-alanine was quantified via RP-HPLC.

[4] = Carboxylate reductase activity assay (N7-acetyl-7-aminoheptanoate to N7-acetyl-7-aminoheptanal); settings: purified enzyme enhanced by sfp gene product, 2 mM N7-acetyl-7-aminoheptanoate, 1 mM ATP, 1 mM NADPH, pH 7.5, room temperature, 20 min, against empty vector control
Method: The activity of each of the N-terminal His-tagged carboxylate reductases of SEQ ID NOs: 3, 6, and 7 (see Example 4, and FIGS. 7B, 7E, and 7F) for converting N7-acetyl-7-aminoheptanoate to N7-acetyl-7-aminoheptanal was assayed in triplicate in a buffer composed of a final concentration of 50 mM HEPES buffer (pH=7.5), 2 mM N7-acetyl-7-aminoheptanoate, 10 mM MgCl2, 1 mM ATP, and 1 mM NADPH. The assays were initiated by adding purified carboxylate reductase and phosphopantetheine transferase or the empty vector control to the assay buffer containing the N7-acetyl-7-aminoheptanoate then incubated at room temperature for 20 min. The consumption of NADPH was monitored by absorbance at 340 nm.

Molecule	acceptance of 7-aminoheptanoate as substrate (formation of L-alanine from pyruvate, RP-HPLC) [1]	acceptance of pimelate semialdehyde as substrate (formation of pyruvate from L-alanine, RP-HPLC) [2]	reversibility of ω-transaminase activity: accepts pimelate semialdehyde and synthesizes 7-aminoheptanoate [2]	acceptance of 7-aminoheptanol as substrate (formation of L-alanine, RP-HPLC) [3]	acceptance of 7-oxoheptanol as substrate forming 7-aminoheptanol [3]	acceptance of N7-acetyl-7-aminoheptanoate as substrate (consumption of NADPH, absorbance at 340 nm) [4]
SEQ ID NO 11: Rhodobacter sphaeroides ω-transaminase, Genbank Accession No. ABA81135.1	accepted 7-aminoheptanote as substrate	accepted pimelate semialdehyde as substrate	accepted pimelate semialdehyde as substrate and synthesized 7-aminoheptanoate	accepted 7-aminoheptanol as substrate	accept 7-oxoheptanol as substrate and form 7-aminoheptanol	
SEQ ID NO 3: Mycobacterium smegmatis carboxylate reductase, Genbank Accession No. ABK71854.1 (protein, listed as Mycobacterium smegmatis) MTSDVHDATDGVTETALDDEQSTRRIAELYATDPEFAAAAPLPAVVDAAHKPGLRLAEILQTLFTGYGDRPALGYRARELATDEGGRTVTRLLPRFDTLTYAQVWSRVQAVAAALRHNFAQPIYPGDAVATIGFASPDYLTLDLVCAYLGLVSVPLQHNAPVSRLAPILAEVEPRILTVSAEYLDLAVESVRDVNSVSQLVVFDHHPEVDDHRDALARAREQLAGKGIAVTTLDAIADEGAGLPAEPIYTADHDQRLAMILYTSGSTGAPKGAMYTEAMVARLWTMSFITGDPTPVINVNFMPLNHLGGRIPISTAVQNGGTSYFVPESDMSTLFEDLALVRPTELGLVPRVADMLYQHHLATVDRLVTQGADELTAEKQAGAELREQVLGGRVITGFVSTAPLAAEMRAFLDITLGAHIVDGYGLTETGAVTRDGVIVRPPVIDYKLIDVPELGYFSTDKPYPRGELLVRSQTLTPGYYKRPEVTASVFDRDGYYHTGDVMAETAPDHLVYVDRRNNVLKLAQGEFVAVANLEAVFSGAALVRQIFVYGNSERSFLLAVVVPTPEALEQYDPAALKAALADSLQRTARDAELQSYEVPADFIVETEPFSAANGLLSGVGKLLRPNLKDRYGQRLEQMYADIAATQANQLRELRRAAATQPVIDTLTQAAATILGTGSEVASDAHFTDLGGDSLSALTLSNLLSDFFGFEVPVGTIVNPATNLAQLAQHIEAQRTAGDRRPSFTTVHGADATEIRASELTLDKFIDAETLRAAPGLPKVTTEPRTVLLSGANGWLGRFLTLQWLERLAPVGGTLITIVRGRDDAAARARLTQAYDTDPELSRRFAELADRHLRVVAGDIGDPNLGLTPEIWHRLAAEVDLVVHPAALVNHVLPYRQLFGPNVVGTAEVIKLALTERIKPVTYLSTVSVAMGIPDFEEDGDIRTVSPVRPLDGGYANGYGNSKWAGEVLLREAHDLCGLPVATFRSDMILAHPRYRGQVNVPDMFTRLLLSLLITGVAPRSFYIGDGERPRAHYPGLTVDFVAEAVTTLGAQQREGYVSYDVMNPHDDGISLDVFVDWLIRAGHPIDRVDDYDDWVRRFETALTALPEKRRAQTVLPLLHAFRAPQAPLRGAPEPTEVFHAAVRTAKVGPGDIPHLDEALIDKYIRDLREFGLI						accepted N7-acetyl-7-aminoheptanoate as substrate
SEQ ID NO 13: Vibrio fluvialis ω-transaminase, Genbank Accession No. AEA39183.1 (protein, listed as Vibrio fluvialis) MNKPQSWEARAETYSLYGFTDMPSLHQRGTVVVTHGEGPYIVDVNGRRYLDANSGLWNMVAGFDHKGLIDAAKAQYERFPGYHAFFGRMSDQTVMLSEKLVEVSPFDSGRVFYTNSGSEANDTMVKMLWFLHAAEGKPQKRKILTRWNAYHGVTAVSASMTGKPYNSVFGLPLPGFVHLTCPHYWRYGEEGETEEQFVARLARELEETIQREGADTIAGFFAEPVMGAGGVIPPAKGYFQAILPILRKYDIPVISDEVICGFGRTGNTWGCVTYDFTPDAIISSKNLTAGFFPMGAVILGPELSKRLETAIEAIEEFPHGFTASGHPVGCAIALKAIDVVMNEGLAENVRRLAPRFEERLKHIAERPNIGEYRGIGFMWALEAVKDKASKTPFDGNLSVSERIANTCTDLGLICRPLGQSVVLCPPFILTEAQMDEMFDKLEKALDKVFAEVA	accepted 7-aminoheptanote as substrate	accepted pimelate semialdehyde as substrate	accepted pimelate semialdehyde as substrate and synthesized 7-aminoheptanoate			
SEQ ID NO 8: Chromobacterium violaceum ω-transaminase, Genbank Accession No. AAQ59697.1 (protein, listed as Chromobacterium violaceum) MQKQRTTSQWRELDAAHHLHPFTDTASLNQAGARVMTRGEGVYLWDSEGNKIIDGMAGLWCVNVGYGRKDFAEAARRQMEELPFYNTFFKTTHPAVVELSSLLAEVTPAGFDRVFYTNSGSESVDTMIRMVRRYWDVQGKPEKKTLIGRWNGYHGSTIGGASLGGMKYMHEQGDLPIPGMAHIEQPWWYKHGKDMTPDEFGVVAARWLEEKILEIGADKVAAFVGEPIQGAGGVIVPPATYWPEIERICRKYDVLLVADEVICGFGRTGEWFGHQHFGFQPDLFTAAKGLSSGYLPIGAVFVGKRVAEGLIAGGDFNHGFTYSGHPVCAAVAHANVAALRDEGIVQRVKDDIGPYMQKRWRETFSRFEHVDDVRGVGMVQAFTLVKNKAKRELFPDFGEIGTLCRDIFFRNNLIMRACGDHIVSAPPLVMTRAEVDEMLAVAERCLEEFEQTLKARGLA	accepted 7-aminoheptanote as substrate		accepted pimelate semialdehyde as substrate and synthesized 7-aminoheptanoate	accepted 7-aminoheptanol as substrate	accept 7-oxoheptanol as substrate and form 7-aminoheptanol	
SEQ ID NO 10: Pseudomonas syringae ω-transaminase, Genbank Accession No. AAY39893.1 (protein, listed as Pseudomonas syringae) MSANNPQTLEWQALSSEHHLAPFSDYKQLKEKGPRIITRAEGVYLWDSEGNKILDGMSGLWCVAIGYGREELADAASKQMRELPYYNLFFQTAHPPVLELAKAISDIAPEGMNHVFFTGSGSEGNDTMLRMVRHYWALKGQPNKKTIISRVNGYHGSTVAGASLGGMTYMHEQGDLPIPGVVHIPQPYWFGEGGDMTPDEFGIWAAEQLEKKILELGVENVGAFIAEPIQGAGGVIVPPDSYWPKIKEILSRYDILFAADEVICGFGRTSEWFGSDFYGLRPDMMTIAKGLTSGYVPMGGLIVRDEIVAVLNEGGDFNHGFTYSGHPVAAAVALENIRILREEKIVERVRSETAPYLQKRLRELSDHPLVGEVRGVGLLGAIELVKDKTTRERYTDKGAGMICRTFCFDNGLIMRAVGDTMIIAPPLVISFAQIDELVEKARTCLDLTLAVLQG	accepted 7-aminoheptanote as substrate	accepted pimelate semialdehyde as substrate	accepted pimelate semialdehyde as substrate and synthesized 7-aminoheptanoate	accepted 7-aminoheptanol as substrate	accept 7-oxoheptanol as substrate and form 7-aminoheptanol	
